Patent publication US10293026B2, “Agent for preventing or treating demyelinating disease” (Osaka University, priority 2014, dated 2019)

Tests used:
[1] = test system: demyelination model mice; assay: Ladder walk test of hindlimb motor function in demyelination model mice (Example 7); assay type: in vivo, C57BL/6j mice; settings: FGF21 administered as in Example 5, FIG. 7
Experimental: Demyelination model mice were created, and recombinant FGF21 was administered, as in Example 5 above. The hindlimb motor function of the mice was examined by performing the ladder walk test. A 1-m long ladder was installed in a position at a height of 15 cm. The mice were allowed to walk on the ladder with random widths of 0.6, 1.2, and 1.8 cm. The number of missed steps was counted, and the proportion (%) of the number of missed steps relative to the total number of steps was calculated. This experiment conducted the study using three mice for each group.

[2] = test system: oligodendrocyte precursor cells in demyelination model mice; assay: PDGFRα and Ki67 double-positive cells in spinal cord of demyelination model mice, osmotic pump administration (Example 4); assay type: in vivo, C57BL/6j mice; settings: continuous local administration by osmotic pump for 7 days, 350 ng in total, vs saline, p<0.05, FIG. 4
Experimental: Demyelination model mice were produced by topically administering 2 μl per mouse of lysophosphatidylcholine diluted to 1% (w/v) in saline solution into the spinal cord of C57BL/6j mice (female, 7-week-old).
Osmotic pumps (ALZET) were filled with an FGF21-containing solution prepared by diluting recombinant FGF21 (R&D) to 4.17 μg/ml in saline solution, a cannula was attached to the tip of each pump, and the tip was attached to the site of lysophosphatidylcholine administration in each demyelination model mouse to continuously administer FGF21. After 7 days, the demyelination model mice were anesthetized and transcardially perfused with saline solution, and spinal cord tissue was harvested. Ultimately, 350 ng of FGF21 was administered. The spinal cord tissue was fixed with a 4% paraformaldehyde solution, which was then replaced with a 30% sucrose solution, and subsequently, frozen thin sections were prepared. The sections were immunostained using an anti-PDGFRα antibody and an anti-Ki67 antibody, and the number of PDGFRα and Ki67 double-positive cells in the sections was counted. PDGFRα is a marker for oligodendrocyte precursor cells, and Ki67 is a cell proliferation marker. As a control, saline solution was used, and the number of PDGFRα and Ki67 double-positive cells was counted under the same conditions as those described above. […]

[3] = test system: oligodendrocyte precursor cells in brain contusion model mice; assay: PDGFRα and Ki67 double-positive cells in brain tissue of brain contusion model mice (Example 9); assay type: in vivo, C57BL/6j mice; settings: continuous intraventricular administration 50 ng/kg body weight per day for 1 week, vs vehicle, FIG. 9
Experimental: Anesthetized C57BL/6j mice (female, 7-week-old) were fixed onto a brain stereotaxic apparatus (Narishige). A midline incision was made in the scalp, the fascia was removed, and the skull was exposed. A craniotomy was performed through a 4-mm diameter circle centered at 2 mm lateral to the bregma. A 3-mm diameter chip was connected to the Pneumatic Impact Device (AmScien Instruments) to create a brain contusion. The parameters for imparting impact were as follows: speed: […], depth: 1 mm, and duration: 120 msec.
Osmotic pumps (ALZET) were filled with an FGF21-containing solution prepared by diluting recombinant FGF21 (R&D) in saline solution. A cannula was attached to the tip of each osmotic pump, and the cannula tip was further connected to a Brain infusion kit (ALZET) to continuously administer the FGF21-containing solution into the ventricles. The FGF21-containing solution was administered for 1 week at a dose of 50 ng/kg body weight of FGF21 per day. […] The sections were immunostained using an anti-PDGFRα antibody and an anti-Ki67 antibody, and the number of PDGFRα and Ki67 double-positive cells in the sections was counted. As a control, a saline solution containing 0.5% BSA (Vehicle) was used, and the number of PDGFRα and Ki67 double-positive cells was counted under the same conditions as those described above. […]

[4] = test system: oligodendrocyte precursor cells; assay: BrdU uptake by oligodendrocyte precursor cells with recombinant FGFs (Example 3); assay type: cell-based, C57BL/6j mice; settings: FGF at 10, 30 or 100 ng/ml, vs saline control; FIG. 3
Experimental: Recombinant FGF15 (Abcam), FGF21 (R&D), or FGF23 (R&D) was diluted in saline solution immediately before use to prepare an each FGF-containing solution. Oligodendrocyte precursor cells were harvested from C57BL/6j mice (postnatal day 1-old) brains, as in Example 1.
Initially, the oligodendrocyte precursor cells were seeded in a poly-L-lysinde (Sigma)-coated plastic tissue culture dish, and cultured in the following medium for 1 day (37° C., 5% CO2). The medium used was DMEM containing 4 mM L-gludamine (Sigma), 1 mM sodium pyruvate (Sigma), 0.1% bovine serum albumin (Sigma), 50 μg/ml apo-Transferrin (Sigma), 5 μg/ml insulin (Sigma), 30 nM sodium selenite (Sigma), 10 nM biotin (Sigma), 10 nM hydrocortisone (Sigma), 10 ng/ml Platelet-Derived Growth Factor-AA (Peprotech), and 10 ng/ml basic fibroblast growth factor (Peprotech). Thereafter, each type of FGF-containing solution was added to the culture medium of oligodendrocyte precursor cells such that the concentration of each type of FGF was 10 ng/ml, 30 ng/ml, or 100 ng/ml, and the cells were cultured at 37° C. for 24 hours. BrdU was subsequently added and cultured at 37° C. for 24 hours, and then the cells were collected; the BrdU uptake was then detected using the cell proliferation ELISA, BrdU colorimetric kit (Roche). As a control, an equivalent amount of saline solution was used instead of the FGF21-containing solution, and the BrdU uptake was measured under the same conditions as those described above. This experiment studied three cases for each group.

[5] = test system: oligodendrocyte precursor cells in demyelination model mice; assay: PDGFRα and Ki67 double-positive cells in spinal cord of demyelination model mice, subcutaneous administration (Example 5); assay type: in vivo, C57BL/6j mice; settings: subcutaneous 500 ng/kg body weight per day for 2 weeks, vs saline with 0.5% BSA, FIG. 5
Experimental: Demyelination model mice were produced by performing a laminectomy at the 11th and 12th thoracic vertebrae in C57BL/6j mice (female, 7-week-old), and topically administering 2 μl of lysophosphatidylcholine diluted to 1% (w/v) in saline solution at a depth of 2 mm into the midline of the spinal column.
An FGF21-containing solution prepared by diluting recombinant FGF21 (R&D) in saline solution was subcutaneously administered for 2 weeks at a dose of 500 ng/kg body weight of FGF21 per day. After 2 weeks, the demyelination model mice were anesthetized and transcardially perfused with saline solution, and spinal cord tissue was harvested. The harvested spinal cord tissue was fixed with a 4% paraformaldehyde solution, which was then replaced with a 30% sucrose solution, and subsequently, frozen thin sections were prepared. The sections were immunostained using an anti-PDGFRα antibody and an anti-Ki67 antibody, and the number of PDGFRα and Ki67 double-positive cells in the sections was counted. As a control, a saline solution containing 0.5% BSA was used, and the number of PDGFRα and Ki67 double-positive cells was counted under the same conditions as those described above. This experiment conducted the study using five or six mice for each group.

B1: FGF21: Recombinant fibroblast growth factor 21 (R&D); the claimed active ingredient promoting oligodendrocyte precursor cell proliferation (protein, listed as Homo sapiens)
chain: MDSDETGFEHSGLWVSVLAGLLLGACQAHPIPDSSPLLQFGGQVRQRYLYTDDAQQTEAHLEIREDGTVGGAADQSPESLLQLKALKPGVIQILGVKTSRFLCQRPDGALYGSLHFDPEACSFRELLLEDGYNVYQSEAHGLPLHLPGNKSPHRDPAPRGPARFLPLPGLPPALPEPPGILAPQPPDVGSSDPLSMVGPSQGRSPSYAS
[1]
  number of missed steps on the ladder: decreased
[2]
  number of PDGFRα and Ki67 double-positive cells: increased
[3]
  number of PDGFRα and Ki67 double-positive cells: increased
[4]
  BrdU uptake by the oligodendrocyte precursor cells: markedly increased
[5]
  number of PDGFRα and Ki67 double-positive cells: increased
